These results are taken from patent publication US20180155451A1 (published 2018).

The target in experiment [1] is T1, FcγRIIb extracellular domain with C-terminal His tag (human, UniProt P31994 43-217).
T1 construct: extracellular domain; Expressed in FreeStyle293 cells; analyte in the Biacore assay; also called FcgRIIb; 2b; not shown: His tag at the C terminus
T1 sequence (looked up): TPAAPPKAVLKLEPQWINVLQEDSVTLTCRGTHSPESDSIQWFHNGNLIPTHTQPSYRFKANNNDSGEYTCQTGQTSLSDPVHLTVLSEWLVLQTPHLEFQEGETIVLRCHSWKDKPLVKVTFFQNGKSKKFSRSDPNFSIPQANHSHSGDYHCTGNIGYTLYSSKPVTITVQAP
Briefly: SPR (Biacore), antibody captured on antigen-peptide chip, FcγR as analyte; relative binding.

The target of experiment [2] is T2, FcγRIa extracellular domain with C-terminal His tag (human, UniProt P12314 16-292).
T2 construct: extracellular domain; Expressed in FreeStyle293 cells; analyte in the Biacore assay; also called FcgRI; 1a; not shown: His tag at the C terminus
The description is as above.

T2 sequence (P12314 16-292): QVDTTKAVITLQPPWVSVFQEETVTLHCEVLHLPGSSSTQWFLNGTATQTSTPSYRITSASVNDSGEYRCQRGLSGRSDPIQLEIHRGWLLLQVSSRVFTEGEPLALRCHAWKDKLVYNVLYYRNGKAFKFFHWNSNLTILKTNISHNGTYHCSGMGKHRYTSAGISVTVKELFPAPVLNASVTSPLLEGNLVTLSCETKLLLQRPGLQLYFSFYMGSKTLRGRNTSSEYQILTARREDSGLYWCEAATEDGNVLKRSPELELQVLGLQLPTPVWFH

B1: GpH7-A5/GpH7-B3 variant E269_14T/GpL16-k0 (He Ab) (antibody, human IgG1, kappa)
heavy 1: not shown
heavy 2: not shown
light: DIVMTQSPLSLPVTPGEPASISCQASESLVHSNRNTYLHWYLQKPGQSPQLLIYKVSNRFSGVPDRFSGSGSGTDFTLKISRVEAEDVGVYYCSQNTHVPPTFGQGTKVEIERTVAAPSVFIFPPSDEQLKSGTASVVCLLNNFYPREAKVQWKVDNALQSGNSQESVTEQDSKDSTYSLSSTLTLSKADYEKHKVYACEVTHQGLSSPVTKSFNRGEC
notes: Heterodimerized anti-glypican-3 IgG1; the mutation stands in the GpH7-B3 chain only
For the molecule B1, the He/Con_2b in experiment [1] was 50.6 % of GpH7-A5/GpH7-B3/GpL16-k0 (=100). For the same molecule, the He/Con_1a in experiment [2] is 106 % of GpH7-A5/GpH7-B3/GpL16-k0 (=100).

B2: GpH7-A5/GpH7-B3 variant S324_02A/GpL16-k0 (He Ab) (antibody, human IgG1, kappa)
heavy 1: not shown
heavy 2: not shown
light: DIVMTQSPLSLPVTPGEPASISCQASESLVHSNRNTYLHWYLQKPGQSPQLLIYKVSNRFSGVPDRFSGSGSGTDFTLKISRVEAEDVGVYYCSQNTHVPPTFGQGTKVEIERTVAAPSVFIFPPSDEQLKSGTASVVCLLNNFYPREAKVQWKVDNALQSGNSQESVTEQDSKDSTYSLSSTLTLSKADYEKHKVYACEVTHQGLSSPVTKSFNRGEC
notes: as for B1
B2: in experiment [1], the He/Con_2b is 78.3 % of GpH7-A5/GpH7-B3/GpL16-k0 (=100). The He/Con_1a in experiment [2] is 103 % of GpH7-A5/GpH7-B3/GpL16-k0 (=100).

B3: GpH7-A5/GpH7-B3 variant E269_16H/GpL16-k0 (He Ab) (antibody, human IgG1, kappa)
heavy 1: not shown
heavy 2: not shown
light: DIVMTQSPLSLPVTPGEPASISCQASESLVHSNRNTYLHWYLQKPGQSPQLLIYKVSNRFSGVPDRFSGSGSGTDFTLKISRVEAEDVGVYYCSQNTHVPPTFGQGTKVEIERTVAAPSVFIFPPSDEQLKSGTASVVCLLNNFYPREAKVQWKVDNALQSGNSQESVTEQDSKDSTYSLSSTLTLSKADYEKHKVYACEVTHQGLSSPVTKSFNRGEC
notes: as for B1
For B3, in experiment [1], the He/Con_2b was 38.5 % of GpH7-A5/GpH7-B3/GpL16-k0 (=100). Further, in experiment [2], the He/Con_1a was 106 % of GpH7-A5/GpH7-B3/GpL16-k0 (=100).

B4: GpH7-A5/GpH7-B3 variant Y300_03V/GpL16-k0 (He Ab) (antibody, human IgG1, kappa)
heavy 1: not shown
heavy 2: not shown
light: DIVMTQSPLSLPVTPGEPASISCQASESLVHSNRNTYLHWYLQKPGQSPQLLIYKVSNRFSGVPDRFSGSGSGTDFTLKISRVEAEDVGVYYCSQNTHVPPTFGQGTKVEIERTVAAPSVFIFPPSDEQLKSGTASVVCLLNNFYPREAKVQWKVDNALQSGNSQESVTEQDSKDSTYSLSSTLTLSKADYEKHKVYACEVTHQGLSSPVTKSFNRGEC
notes: as for B1
B4: the He/Con_2b in experiment [1] was 73.9 % of GpH7-A5/GpH7-B3/GpL16-k0 (=100). The He/Con_1a in experiment [2] is 117 % of GpH7-A5/GpH7-B3/GpL16-k0 (=100).

B5: GpH7-A5/GpH7-B3 variant H268_14T/GpL16-k0 (He Ab) (antibody, human IgG1, kappa)
heavy 1: not shown
heavy 2: not shown
light: DIVMTQSPLSLPVTPGEPASISCQASESLVHSNRNTYLHWYLQKPGQSPQLLIYKVSNRFSGVPDRFSGSGSGTDFTLKISRVEAEDVGVYYCSQNTHVPPTFGQGTKVEIERTVAAPSVFIFPPSDEQLKSGTASVVCLLNNFYPREAKVQWKVDNALQSGNSQESVTEQDSKDSTYSLSSTLTLSKADYEKHKVYACEVTHQGLSSPVTKSFNRGEC
notes: as for B1
Take B5: the He/Con_2b in experiment [1] is 86 % of GpH7-A5/GpH7-B3/GpL16-k0 (=100). The He/Con_1a in experiment [2] is 112 % of GpH7-A5/GpH7-B3/GpL16-k0 (=100).

B6: GpH7-A5/GpH7-B3 variant S298_20W/GpL16-k0 (He Ab) (antibody, human IgG1, kappa)
heavy 1: not shown
heavy 2: not shown
light: DIVMTQSPLSLPVTPGEPASISCQASESLVHSNRNTYLHWYLQKPGQSPQLLIYKVSNRFSGVPDRFSGSGSGTDFTLKISRVEAEDVGVYYCSQNTHVPPTFGQGTKVEIERTVAAPSVFIFPPSDEQLKSGTASVVCLLNNFYPREAKVQWKVDNALQSGNSQESVTEQDSKDSTYSLSSTLTLSKADYEKHKVYACEVTHQGLSSPVTKSFNRGEC
notes: as for B1
On to B6, for which the He/Con_2b in experiment [1] is 41.1 % of GpH7-A5/GpH7-B3/GpL16-k0 (=100). The He/Con_1a in experiment [2] was 104 % of GpH7-A5/GpH7-B3/GpL16-k0 (=100).

B7: GpH7-A5/GpH7-B3 variant S324_07I/GpL16-k0 (He Ab) (antibody, human IgG1, kappa)
heavy 1: not shown
heavy 2: not shown
light: DIVMTQSPLSLPVTPGEPASISCQASESLVHSNRNTYLHWYLQKPGQSPQLLIYKVSNRFSGVPDRFSGSGSGTDFTLKISRVEAEDVGVYYCSQNTHVPPTFGQGTKVEIERTVAAPSVFIFPPSDEQLKSGTASVVCLLNNFYPREAKVQWKVDNALQSGNSQESVTEQDSKDSTYSLSSTLTLSKADYEKHKVYACEVTHQGLSSPVTKSFNRGEC
notes: as for B1
For the molecule B7, in experiment [1], the He/Con_2b was 95.7 % of GpH7-A5/GpH7-B3/GpL16-k0 (=100). For the same molecule, in experiment [2], the He/Con_1a was 102 % of GpH7-A5/GpH7-B3/GpL16-k0 (=100).

B8: GpH7-A5/GpH7-B3 variant S324_03V/GpL16-k0 (He Ab) (antibody, human IgG1, kappa)
heavy 1: not shown
heavy 2: not shown
light: DIVMTQSPLSLPVTPGEPASISCQASESLVHSNRNTYLHWYLQKPGQSPQLLIYKVSNRFSGVPDRFSGSGSGTDFTLKISRVEAEDVGVYYCSQNTHVPPTFGQGTKVEIERTVAAPSVFIFPPSDEQLKSGTASVVCLLNNFYPREAKVQWKVDNALQSGNSQESVTEQDSKDSTYSLSSTLTLSKADYEKHKVYACEVTHQGLSSPVTKSFNRGEC
notes: as for B1
Turning to B8, the He/Con_2b in experiment [1] is 97.8 % of GpH7-A5/GpH7-B3/GpL16-k0 (=100). In experiment [2], the He/Con_1a was 104 % of GpH7-A5/GpH7-B3/GpL16-k0 (=100).

B9: GpH7-A5/GpH7-B3 variant K326_12R/GpL16-k0 (He Ab) (antibody, human IgG1, kappa)
heavy 1: not shown
heavy 2: not shown
light: DIVMTQSPLSLPVTPGEPASISCQASESLVHSNRNTYLHWYLQKPGQSPQLLIYKVSNRFSGVPDRFSGSGSGTDFTLKISRVEAEDVGVYYCSQNTHVPPTFGQGTKVEIERTVAAPSVFIFPPSDEQLKSGTASVVCLLNNFYPREAKVQWKVDNALQSGNSQESVTEQDSKDSTYSLSSTLTLSKADYEKHKVYACEVTHQGLSSPVTKSFNRGEC
notes: as for B1
As to B9, the He/Con_2b in experiment [1] is 89.2 % of GpH7-A5/GpH7-B3/GpL16-k0 (=100). Besides, the He/Con_1a in experiment [2] is 100 % of GpH7-A5/GpH7-B3/GpL16-k0 (=100).
